In patent US20230310601A1 (UNIVERSITY OF SOUTHERN CALIFORNIA, published 2023):

Target: T1, recombinant human PD-1-Fc (GenScript) (human, UniProt Q15116 25-167, limits assumed)
T1 construct: Bought reagent (GenScript); not shown: Fc part of the bought fusion
Test: sandwich ELISA; PD-1-Fc coated (200 ng/mL), purified trap protein 0-40 µg/mL, anti-His-tag-HRP detection
Procedure: FIG. 2A-2E depict characterization of trap protein. […] (2D and 2E) Binding ability of trap to PD-1 and TGF-β using sandwich ELISA, wherein purified trap protein was added to PD-1-Fc-coated or TGF-β-coated plates, followed by detection by anti-His-tag antibody conjugated with HRP.
The binding ability of trap protein to PD-1 and TGFβ protein was evaluated by sandwich ELISA, wherein recombinant human PD-1-Fc (GenScript) or […] protein (R&D Systems) (200 ng/mL) was coated on the plates, followed by purified trap protein (0-40 μg/mL) detected by anti-6×HIS TAG® antibody-HRP (1:500 diluted, Abcam).

T1 sequence (Q15116 25-167 limits assumed): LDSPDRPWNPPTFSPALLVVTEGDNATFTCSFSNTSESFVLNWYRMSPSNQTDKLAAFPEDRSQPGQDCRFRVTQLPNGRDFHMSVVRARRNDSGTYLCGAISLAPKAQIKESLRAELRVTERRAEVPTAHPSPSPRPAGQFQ

B1: trap protein labeled with a His-tag (anti-PD-1 scFv fused to a TGF-β-binding sequence of TGF-βRII, produced in transfected 293T cells) (other, not shown: small tags and cut ends)
chain: DIVLTQSPATLSLSPGERATLSCRASKSVSTSGFNYMHWYQQKPGQAPRLLIFLASNLASGVPARFSGSGSGTDFTLTISSLEPEDFAVYYCQHGRELPLTFGQGTKLEIGGGGSGGGGSGGGGSQVQLVQSGAEVKKPGASVKVSCKASGYTFTNYYMYWVRQAPGQGLEWIGGINPSNGGTNFNEKFKNKATMTVDKSTSTAYMELSSLRSEDTAVYYCTRRDYNYDGGFDYWGQGTLVTVSSGGGGSGGGGSTIPPHVQKSVNNDMIVTDNNGAVKFPQLCKFCDVRFSTCDNQKSCMSNCSITSICEKPQEVCVAVWRKNDENITLETVCHDPKLPYHDFILEDAASPKCIMKEKKKPGETFFMCSCSSDECNDNIIFSEEYNTSNPD
notes: Western blot gives 56 kDa; The text says the scFv derives from antibody 5C4; also called bifunctional trap protein; purified trap protein
  binding result: binds
